Experimental data from patent US20250388652A1 (BEIJING WISDOMAB BIOTECHNOLOGY, published 2025).
Positions count from the first letter of the chain named.

B1: anti-RSV monoclonal antibody Palivizumab (Hu1129) (antibody, V domains shown)
VH: QVTLRESGPALVKPTQTLTLTCTFSGFSLSTSGMSVGWIRQPPGKALEWLADIWWDDKKDYNPSLKSRLTISKDTSKNQVVLKVTNMDPADTATYYCARSMITNWYFDVWGAGTTVTVSS
VL: DIQMTQSPSTLSASVGDRVTITCKCQLSVGYMHWYQQKPGKAPKLWIYDTSKLASGVPSRFSGSGSGTEFTLTISSLQPDDFATYYCFQGSGYPFTFGGGTKLEIK
B2: recombinant monoclonal antibody R3B1h1 against F protein of RSV (human IgG1-K version) (antibody, V domains shown)
VH: QVQLVQSGAEVKKPGSSVKVSCKASGGLLEDYIINWVRQAPGQGLEWMGGIIPVLGTVHYGPKFQGRVTITADESTSTAYMELSSLRSEDTAVYYCATETAIVVTESYRPHFFDNWGQGTLVTVSS
VL: DIQMTQSPSSLSASVGDRVTITCQASQDIVNYLNWYQQKPGKAPKLLIYVASNLETGVPSRFSGSGSGTDFTFTISSLQPEDIATYYCQEFAGLALNFGGGTKVEIKR
B3: recombinant monoclonal antibody R22B1 against F protein of RSV (human IgG1-K version) (antibody, V domains shown)
VH: QVQLVQSGAEVKKPGSSVMVSCQASGDPLQNYIINWVRQAPGQGPEWMGAIIPALGSAHYGPKFQGRVTITADESTDTAYMELSSLRSEDTAMYYCATETAVIISESYLPHFFDNWGQGTLVTVSS
VL: B2 VL with S14A, T72S, F73L, I83V, F91Y, A92D, G93S, N97A
B4: anti-RSV monoclonal antibody Nirsevimab (MEDI8897) (antibody, V domains shown)
VH: B2 VH with K19M, K23Q, L45P, S77D, V93M, I102L, T105S, S107T, R109L, F112Y
VL: DIQMTQSPSSLSAAVGDRVTITCQASQDIVNYLNWYQQKPGKAPKLLIYVASNLETGVPSRFSGSGSGTDFSLTISSLQPEDVATYYCQQYDNLPLTFGGGTKVEIK
B5: anti-RSV monoclonal antibody Clesrovimab (RB1) (antibody, V domains shown)
VH: EVQLVESGGGLVRPGRSLRLSCTVSGFSFDDSAMSWVRQAPGKGLEWISFIKSKTYGGTKEYAASVKGRFTISRDDSKNIAYLQMNSLKTEDTAVYYCTRGAPYGGNSDYYYGLDVWGQGTTVTVSS
VL: DIQMTQSPSSLSASVGDRVTITCRTSQDVRGALAWYQQKPGKAPKLLIFDASSLETGVPSRFSGSGSGTVFTLTISSLQPEDFAAYYCQQFLDFPFTFGQGTRLEIK

What was measured:
[1] = biological target: T1, F protein of strain 18537 of RSV subtype B (respiratory syncytial virus subtype B, …, UniProt P13843 26-574); experiment: cell-based or functional assay
[2] = biological target: T2, F protein mutant RSV-DS-Cav1-A with a DS-Cav1 structure before fusion (respiratory syncytial virus subtype A, …, UniProt P03420 26-513)
[3] = biological target: T3, F protein of strain A2 of RSV subtype A (respiratory syncytial virus subtype A, …, UniProt P03420 26-574); experiment: cell-based or functional assay
[4] = biological target: T2, F protein mutant RSV-DS-Cav1-A with a …; remark: listed apart in the source
[5] = biological target: T3, F protein of strain A2 of RSV subtype A; experiment: cell-based or functional assay; remark: listed apart in the source
[6] = biological target: T1, F protein of strain 18537 of RSV …; experiment: cell-based or functional assay; remark: listed apart in the source

Row | Binder | IC50(nM), inhibition of strain RSV/18537 infection of Hep-2 cells (RFFIT) [1] [nM] | Kd [2] [nM] | koff [2] [s⁻¹] | kon [2] [M⁻¹ s⁻¹] | IC50(nM), inhibition of RSV/A2 strain infection of Hep-2 cells (RFFIT) [3] [nM] | EC50 (read off the curve) [4] [nM] | neutralisation activity against RSV/A2 relative to Clesrovimab, by IC50 [5] [fold] | neutralisation activity against RSV/A2 relative to Nirsevimab, by IC50 [5] [fold] | neutralisation activity against RSV/A2 relative to Palivizumab, by IC50 [5] [fold] | neutralisation activity against RSV/18537 relative to Clesrovimab, by IC50 [6] [fold] | neutralisation activity against RSV/18537 relative to Nirsevimab, by IC50 [6] [fold] | neutralisation activity against RSV/18537 relative to Palivizumab, by IC50 [6] [fold]
1 | B1 | 4.15 | 2.6 | 8.2e-05 | 31600 |  |  |  |  |  |  |  | 
2 | B2 |  | 0.621 | 2.37e-05 | 31800 | 0.00516 | ~0.1 | ~12 | ~5 | ~410 | ~12 | ~18 | ~545
3 | B3 | 0.111 | 0.354 | 1.41e-05 | 39900 |  |  |  |  |  |  |  | 
4 | B4 | 0.139 | 0.477 | 1.5e-05 | 31500 |  |  |  |  |  |  |  | 
5 | B5 | 0.088 | 17.6 | 0.000351 | 20000 |  |  |  |  |  |  |  | 
